Consider 21 sequences from a protein production outcome set (Wang et al. 2014).

The nature of the series: label from the status in PepcDB records.
“MIKLLKKINIKSIIELVKKDFKLKLISLSVGIVMWFLVIGGVNPVVTRQFTDVPVSFKNQSVLESRKLIRVSPENPTVTVTITGKRSDVYSVNKSDIVAEVNLQNGITSGAHRLSINYKVPYNVQFKSASDNDLLVTLDEEISKTYKVEVETIGQIKNKNQVVAKKEPADSEVVVKGPVSYVNKVKRVRCVVDVTNKDGDEVVQSKIVPVDELNKEVKKVSLSKTDTNVSIGFKNFKEVPIKLVEINSPPSDVRILKKDIVPNIISIVGNLTSLEQISQINTKPFDLSQIKESGSYNLNLELPSDVTLVNNDLKVVINIDVDKKIEKTLEIDTSNIEIENESGKDILLKGLQDKVKVTVRGYESDLAKLNAEDIRLYISVKKEDVGKNVQIKAKNIENIEIAKISNDIVQAIGK”: the protein production entry was “failed”.

Consider “MIKLLLLDVDGTLTDGSLYFDENFHEIKAFNVKDGLGMTLWQKLGKKIAIITGRTSIMVKKRMESLGVQFVFMGVENKNTVIERLKKDLQLSAQEIACVGDDYNDLGMFKACALSFAPFDAHPLLKSKAYKVLQNSGGKGAVREAIDYLLTLEGLQDEALKLYL”, for which the protein production entry was “failed”.

On to “MIKNDGKMMRVRIAKERSDLCDLTAAAIKATYNTRNPCEVERCIDVLNHLKSLSLSVKDIRLSESIVKLETLRSHRNPRIRKEAQALFHSWLKTFYAHGSDNSFTAALTKDRLKMKKHVLKMCSELKKKEEPGTMARQVTAFSVLKNKEDERSQTTVEAVESKTTIKLSELNRKEDQRSLTRETEKNKARNSFLALKQKEDHRSETCVEKYFKKETKTNLKQLNMKTRRVSLEDVTTKKPHEDGSLIKKTKTEKELKKKKVDEMVKLFEAAKKAADVANAKGVLSGKPEVSRCIDALSLLMKINITPKPKEPRRMMDKLEGLTKHKDRKICHVASALLHLWRQRIREQERKKSVTKASSKTRKLSYVKIIWLEQIKVSCGFKRF”, for which the protein production entry is listed as “failed”. Then “MIKNNIKHTWYFGHPQQLVWDYLTKPELLSQWLMESDFQPVAGHTFMFNTKPKVKVGFDGLIYCQVLKVQPDHELEHHHHHH”, with “not failed”; and “MIKQDVICYEKEDVVKRNNINITGGGEKTVLLAHGFGCDQNMWRFMLPELEKQFTVIVFDYVGSGQSDLESFSTKRYSSLEGYAKDVEEILVALDLVNVSIIGHSVSSIIAGIASTHVGDRISDITMICPSPCFMNFPPDYVGGFERDDLEELINLMDKNYIGWANYLAPLVMGASHSSELIGELSGSFCTTDPIVAKTFAKATFFSDYRSLLEDISTPALIFQSAKDSLASPEVGQYMAENIPNSQLELIQAEGHCLHMTDAGLITPLLIHFIQNNQTRA”, with “not failed”; and “MIKTSPPMNKLKLNIALSAFFFALVGCQSMPNDPVDIKADLDASIKETKRLNGPKALTQVPNSVQQELMLNNMDQAKQGMLAEKRLEVSATEVDAKDFFQAIVRGSRYNVVIHPDVTGQISLSLNNVTLSEALTVVEDVYGYEIIRRGNVVKVFPPGIRTETIALNYLFLKRFGSSSTTINSGGVSENDPNSGNSSNGNSSNSNNSNSGSNNNQSGNNGSSNQNSGINLYTENESNFWDELKESLTAFVGTGEGRSVIVSPQAGLVTVRALPQELTAVKKFITATESHLHRQVIIEAKIMEVTLNDDFQQGIKWNKVLDQVGSADIIYSTTGNVVGNVISNTIGGVNSINFSKQTSGSDFSGVIELLQTQGNVQVLSSPRITATNNQKAVIKVGEDEYFVTEVSSTTTTGTSTTTTPEVELTPFFSGIALDVTPQISKDGSVILHVHPSVTITEEQSKTIKIGDTTLVLPLAQSSVRESDTIIRANSGEVVVIGGLIETYNIDIESKTPILGDIPYLGELFKNKSQKSQKRELVIMLKPIVVGQDTWKNQLQDARSLLTKWFPEEVDACELSNDGTLTQECQAQCADAEYATEHGVCQMAAQNAASNDN”, with “failed”. Then “MIKVLDQNTINKIAAGEVIEKPSSVIKELVENSIDSGATAITVEVKGSGLSFLRVTDNGSGIKKDEVKLAFLRHATSKLVTVEDLLSISSLGFRGEALASIASVAQVEMITKTADDVTGLRYQIHGGREISSEEIGAPGGTTIIVRNLFYNTPARKKFMKTDLTEISYIYDLMCRICMSHPKISFKFISNGTDKLFTSGNGKLRDIIYHIYGRDITSNLLEINAENDYMKISGYIARPCISRGNRSFEGYYVNHRYIKSAVLTKAIEDAFRTFVMIHKFPFTEINFQVRPDLLDVNVHPTKMELKFANSQDIYSFTYNAIRETLLFKELIPDVAPGKDSKPETYKQRNVGDAPEAFENKRREALVGPVAQAKAAPTHMVTDNSLVKSENAPVLDQRQMKPERASTSESQARPEGTSTALQQPLKPDNIPAPVRPIIDVIDETKDTNTSAEKKSDNNTYEQPQKSGYSYSGRHQEIPGSKVAESKASYMAVDDRKYVQQNMFQEKFLTKEARAKHRLIGQLFKTYWLIEYDGKFFIMDQHAAHEKVKYEELMENYKNKKIYSQYLMPPAVVTLSATEIEFLHENMETFEALGYQIENFGGREFKLNAVPDNLFGLDGRELFIDFIADASSSAKKVTIDVFIHKLSTMACKAAIKGNTEISFKEADALIDQLLKLENPYTCPHGRPTVISMTEAEIEKKFKRIV”, with “failed”. Then “MIKVLIFFGIILLGLCISPWIVGNTGYVYIAAGDYQLETSLAFGIIMLIVFYALFQVLEWLVITVINLLLRSRFIPHQWRRRSAKKHTLMGALAIAEEDWPAAERAMIKGADNGELPALNLLAAARAAQHQNKTAERDQYLARAETQPLAANAVATTRTRYLLKQGEFTLARAELDKLAPTSKSKAPVLKLALELYRAQQDWEALKLLLPILKKRQILDDIQLNSLSVETHSALLQTASLKGEDALEQCWQWLSRDERNQSEFLAIYTMGLCRFNRKEQAIKLLSKKLRSSPESALLEVIPQIVTAHDTDIRKQLLKHEITHENNADYQRCLALLYQQTRDMKEAKTCWQNVCRIAPTKDSWLSLARIQEQLGEQGHANQSYRQAVTL”, with “failed”; and “MIKVNVMYPYTEGARFDHAYYCDRHMPMVKARLGSACAYYTVEKGLAGSASGAPPAFVAMCAFICDSAENFYAAMYYHGAEILGDIANYTDIAPVLQISEVVVERSDR”, with “not failed”; and “MILAVLFANSVGNVLIERFNGVPAEERLHWRSFLVKLGADNLKGVKNEELLVACHKSVYIVYTMLGDVSIFLVGKDEYDELALAETIYIITAAVKDVCGKPPTERVFLDKYGRICLCLDEIVWNGLLENTDKDRIKRLIRLKPPSEV”, with “failed”. For “MILCYGDNNIMMDIYKEIKEEMKKVYLSRDCCFVGYSGGKDSSAMLTLLWDAIAELPLEERTNPIHILTSEVGVETPAMTAYISRTLQKIQEKANEQNLPFVVHGVKPLMKESYWYKVIGRGVLPPSGNSRLRWCTDSLKVKPMQRKMKEILIASQTTTAVECFDEYDGVLMLAVRNEESARRRHSIQKHEISNDSLFSRHNDMKNILCFNPVKFLTGDEVWMLLLDRGI”, the protein production entry is “failed”. Then “MILFDGMYSLGGVILSLLALMGSIYINKKDYEKYPFGKKMIEPLIVIIKSLAIFIMCIYSLTGSIKDLINGGNEVQYGYALIYALISTLGCGIAYFFLKKKGKAINSSLINIESSQWLMDALLSMGVLVGFLIANIIKHTEFIWFNRYLDPLMVIICSSVFIKMPIKSFGDGLKELLEFKADDSITLEIDKLVEGIEREYNFEDTITRVSKTGNDLRIEIDFIYNEESNIKALDEMDSLREKIFNSLSHINYEKWLNVSFTKDKKWAI”, with “failed”; and “MILGEIMEVLAFKNQSLIDHVNDMVKYWERIKYRYLKTIKRALEALNIKLDIEKVDEFMKILIKLHDIGKASKIYQRAIINDQEKLMGFRHELVSAYYTYHILLKKFGDKNLAFIGALTVMLHHEPIIMGQIRNLKKKELTAEVVLDKLKKFDGMIEDFEDLIKKLIGYSIGDIIKNDSNKDDIIRFVIEMSVRARHTPNSEKLRFIVGTLLLPLVMCDYKGAESREGKAPKFAEVLEVESYVI”, with “not failed”; and “MILINKRAEKQDYQTILAIWEKSVIVTHDFLTAEDRQFYKEQIPLFLDNVELFLWFAGEEVIGFSGTSERELDMLFLDPVATGNGYGSQILGWLIENKRINLVDVNEQNENATRFYLKHGFVVSSRSDLDGFGKPYPILQLQLKERVNGV”, with “not failed”. Then “MILINLFITFLKIGLLNFGGGNGIAAIINNEIINNKHWITKEEFVNMITISRITPGPIATNIATYVGMKTAGIAGAIIATVALITAPIIIMIIILLILHKIGFLNYCLENLKPIIVALWIITIIILLENTYLKIENNKTELLKTLAIVGINFFILFFYNKISPALVIILSGFFYTLI”, with “failed”. Regarding “MILQDARIDVPYTVVSINLPEDSVRHLSNLGLKVGSRLELISKTKSSAIVMLKSSRLAFDDSILSKIDVSESQETVETLPLSELEVGQFAYIDNIFAVNEAKRRLMDMGLTRHTKIYLRKVAPLGDPIEISLRGYELTLRKSEAQMISVVKIDNQEEKLEHHHHHH”, the protein production result was “not failed”.

Take “MILSQQKYNYLAKVSDSNGVISALAFDQRGALKCLMAQYQMKEPTVAQMEELKVLVSEELTPYASSILLDPEYGLPAAQARDREAGLLLAYEKTGYDANTTSRLPDCLVDWSIKRLKEAGADAVKFLLYYDVDGDPQVNVQKQAYIERIGSECQAEDIPFFLEILTYDETISNNSSVEFAKVKVHKVNDAMKVFSAERFGIDVLKVEVPVNMVYVEGFAEGEVVYSKEEAAQAFREQEASTDLPYIYLSAGVSAELFQETLVFAHKAGAKFNGVLCGRATWAGSVQVYMEEGKEAARQWLRTSGLQNINELNKVLKTTASPWTEKVSVG”: the protein production result is “not failed”.

With “MIMINKTKRLMVSRQVKIPRKTYFWGPTPNPGMHPKDQSVTLLSIIRDYLKLSDKEREAARILANGLVKVDGKTVREKKFAVGFMDVIEINGESYRVVYNDQGALVLMKETKERASMKLLKVRSKVIAPGNRIQLGTHDGRTFITDDKSKKVGDVWAVSVPDMKISEIIKMQPGNKAYITAGSHVNQTGTISKIEAKEGSSANLVHFQEGFSTIKDHVFMIGSSKFSFVLSPEEVIPLEHHHHHH”, the protein production entry is “not failed”. Then “MIMMENDRISDFFIVAFIFSWVLWIPVAMVSAGFSFPQPLQAFLESPYNPAAFGPTLAAVLLSYRYGGRDELLALLRKGVNYDFHRIWWPVILLFFPVLTAVALYLGVLWGDPQPYLYWTSQPLMVIMVFIYIFFLGGPLQEEFGWRGYALPRLQRRYSPIYAALIIGFIWGLWHIPLFFIGGSIQSQVPFWSFMILIISASVIYTWVYNSTGSILATMIIHTTGNLSYFLFPVQGTLAGGIFLMILNVAAALAVMLFAGSELKTDFGGQGH”, with “failed”; and “MIMNKIKKILKFCTLKKYDTSSALGREQERYRIISLSVISSLISKILSLLSLILTVSLTLPYLGQERFGVWMTITSLGAALTFLDLGIGNALTNRIAHSFACGKNLKMSRQISGGLTLLAGLSFVITAICYITSGMIDWQLVIKGINENVYAELQHSIKVFVIIFGLGIYSNGVQKVYMGIQKAYISNIVNAIFILLSIITLVISSKLHAGLPVLIVSTLGIQYISGIYLTINLIIKRLIKFTKVNIHAKREAPYLILNGFFFFILQLGTLATWSGDNFIISITLGVTYVAVFSITQRLFQISTVPLTIYNIPLWAAYADAHARNDTQFIKKTLRTSLKIVGISSFLLAFILVVFGSEVVNIWTEGKIQVPRTFIIAYALWSVIDAFSNTFASFLNGLNIVKQQMLAVVTLILIAIPAKYIIVSHFGLTVMLYCFIFIYIVNYFIWYKCSFKKHIDRQLNIRG”, with “failed”; and “MIMRKFASRVKDIQLSEIRKIFEVADEDTINLGIGEPDFSVPDHVREAVKDAVDEGLTHYTSNMGMEELREAIADKLKSENRVHAEPESIIVTVGASEAIFMCTQALLDIGDHALIPDPGFLSYDACVRLSGAVSIPVPLSMDEGFSMSPERVESLITQDTRVIIMNSPSNPTGSVMGKDDVKGIAEIAEDNDLIIISDEIYEKIIYDGKHYSPAQFTDNALIVNGFSKTYAMTGLRIGYVAGCEDIIEELLKVHQYNTACAPSISQYAALAAIRGPQNCVKDMVDEFRRRRDLMFRSLTDMGLECVLPGGAFYMFPYAGDSEEFTKLSLEAGVAVVPGSAFGNEGKGYIRMSYATSYELIEEAMERLKTVCGV”, with “failed”.
